Values of other authors, collected in publication PMC6003685.

Target: PspF 1-265 (Escherichia coli) (UniProt P37344)

Kd: 1000 nM
Substance: PspA 1-144 (from UniProt P0AFM6)
